In patent US20220348635A1, “COMPOSITIONS AND METHODS FOR NEUROLOGICAL DISEASES” (Coda Biotherapeutics, Inc., priority 2019, published 2022):

B1: Y115D, S170T in SEQ ID NO: 33: engineered chimeric α7-nAChR/GlyRα1 LGIC receptor: SEQ ID NO: 33 with substitutions Y115D and S170T (protein)
chain: MRCSPGGVWLALAASLLHVSLQGEFQRKLYKELVKNYNPLERPVANDSQPLTVYFSLSLLQIMDVDEKNQVLTTNIWLQMSWTDHYLQWNVSEYPGVKTVRFPDGQIWKPDILLDNSADERFDATFHTNVLVNSSGHCQYLPPGIFKSSCPMDLKNFPMDVQTCKLKFGTWSYGGWSLDLQMQEADISGYIPNGEWDLVGIPGKRSERFYECCKEPYPDVTFTVTMRRRMGYYLIQMYIPSLLIVILSWISFWINMDAAPARVGLGITTVLTMTTQSSGSRASLPKVSYVKAIDIWMAVCLLFVFSALLEYAAVNFVSRQHKELLRFRRKRRHHKSPMLNLFQEDEAGEGRFNFSAYGMGPACLQAKDGISVKGANNSNTTNPPPAPSKSPEEMRKLFIQRAKKIDKISRIGFPMAFLIFNMFYWIIYKIVRREDVHNQ
modifications: synthetic sequence of chimeric LGIC
B2: Y115D, L131E in SEQ ID NO: 33: engineered chimeric α7-nAChR/GlyRα1 LGIC receptor: SEQ ID NO: 33 with substitutions Y115D and L131E (protein)
chain: MRCSPGGVWLALAASLLHVSLQGEFQRKLYKELVKNYNPLERPVANDSQPLTVYFSLSLLQIMDVDEKNQVLTTNIWLQMSWTDHYLQWNVSEYPGVKTVRFPDGQIWKPDILLDNSADERFDATFHTNVEVNSSGHCQYLPPGIFKSSCPMDLKNFPMDVQTCKLKFGSWSYGGWSLDLQMQEADISGYIPNGEWDLVGIPGKRSERFYECCKEPYPDVTFTVTMRRRMGYYLIQMYIPSLLIVILSWISFWINMDAAPARVGLGITTVLTMTTQSSGSRASLPKVSYVKAIDIWMAVCLLFVFSALLEYAAVNFVSRQHKELLRFRRKRRHHKSPMLNLFQEDEAGEGRFNFSAYGMGPACLQAKDGISVKGANNSNTTNPPPAPSKSPEEMRKLFIQRAKKIDKISRIGFPMAFLIFNMFYWIIYKIVRREDVHNQ
modifications: synthetic sequence of chimeric LGIC

Tests used:
Assay type in all cases: cell-based
[1] = YFP quench plate reader assay, response to TC-5619; conditions: LX293T YFP reporter cells; for percent quench of YFP fluorescence, 1 nM brd: 1 nM TC-5619; for percent quench of YFP fluorescence, 3 nM brd: 3 nM TC-5619; for percent quench of YFP fluorescence, 10 nM brd: 10 nM TC-5619; for percent quench of YFP fluorescence, 30 nM brd: 30 nM TC-5619; for percent quench of YFP fluorescence, 100 nM brd: 100 nM TC-5619; for percent quench of YFP fluorescence, 300 nM brd: 300 nM TC-5619; for percent quench of YFP fluorescence, 1 uM brd: 1 uM TC-5619
From the text: (§1) FIGS. 1A-FIG. 1G show the heat maps of the percent quench of YFP fluorescence in the mutants of the engineered chimeric receptor SEQ ID NO:33 that comprise the indicated double amino acid substitutions following stimulation by various doses of either acetylcholine or the indicated non-native ligand. Ligand doses are written across the top of each chart. Numbers in the boxes indicate the absolute amount of quench observed. Dark blue=80% maximal quench of YFP reporter. Light blue=quench of 30-80%. White=10-30%. Orange=0-10% quench. Negative values represent non-responders that have a negative quench due to a stimulation artifact. SEQ ID NO:29 is a non-responding chimera used as a negative control. Abbreviations for non-native ligand names: abt: ABT-126; ach: acetylcholine; apn: APN-1125; azd: AZD-0328; brd: TC-5619; fac: RG3487; tc6: TC-6987.
(§2) Tables 2-8 below lists percent quench of YFP fluorescence following stimulation of the indicated engineered receptor by various doses of either acetylcholine or the non-native ligand.
(§3) To screen these mutant LGICs for those having novel response profiles to ligands, an anion reporter assay was developed to assess the function of channels in a high throughput format. In this assay, cells expressing a YFP reporter whose fluorescence is quenched in the presence of anion are transfected with DNA encoding the channel of interest. Upon exposure to ligand, channels that are activated will flux anion, resulting in a dose-dependent quench of the YFP that can be detected on a plate reader.
(§4) Lenti-X 293T cells (LX293T, Clontech) were maintained in DMEM containing 10% FBS and 1% penicillin/streptomycin (Invitrogen). […] Two days before assay, cells were split at a density of 20,000 cells/well in a 96-well tissue culture plate coated with poly-d lysine (Thermo Scientific). The next day, the cells were transiently transfected with 0.1 μg of DNA per well using standard Fugene protocol (Promega). On the day of assay, cells were washed 2 times in 1× extracellular solution (1×ECS: 140 mM NaCl, 5 mM KCl, 1 mM MgCl2, 2 mM CaCl2, 10 mM HEPES, 10 mM glucose, pH 7.2, mOsms 300). After the last wash, 100 μL of 1×ECS was added to the wells and the plate was incubated at 37° C. for 30 min. While incubating the plate, the drugs were diluted to a 2× concentration in 1×ECS-NaI (same components as 1×ECS except the 140 mM NaCl was replaced by 140 mM NaI). The plates were then read on a Flexstation3 (Molecular Devices). Each well, 8 wells at a time, of the plate is read for 2 min using a Flexstation3 (Molecular Devices) as follows: 1) a baseline YFP fluorescence is read for 17 sec, 2) 100 μL of ligand is added, and 3) the changes in YFP fluorescence are then measured every 1.3 sec for the remaining time.
(§5) FIG. 1 provides heat maps of the percent quench of YFP fluorescence following stimulation by various doses of either acetylcholine or the non-native ligand as indicated in the Figure. A positive fluorescence signal, as indicated by blue shaded cells, indicate that the engineered receptor is activated by the non-native ligand at that concentration. […] Table 12 lists the EC50 values for the indicated double mutants to acetylcholine (Ach) and TC-5619 as determined from the YFP fluorescence plate reader experiment.

[2] = YFP quench plate reader assay, response to AZD-0328; conditions: LX293T YFP reporter cells; for percent quench of YFP fluorescence, 100 nM azd: 100 nM AZD-0328; for percent quench of YFP fluorescence, 300 nM azd: 300 nM AZD-0328; for percent quench of YFP fluorescence, 30 uM azd: 30 uM AZD-0328
From the text: as §1, §2, §3, §4, §5

[3] = High throughput electrophysiology in HEK293T cells, AZD-0328; conditions: HEK293T cells, held at −60 mV
Method: To confirm the EC50s determined by plate reader as well as develop a better understanding of maximum current flow, the engineered receptors were subjected to high throughput electrophysiology system, as described below. For HEK293T studies, cDNAs encoding ion channels were cloned into pcDNA3.1 using standard recombination techniques. HEK293T cells from Clontech (Lenti-X™ 293T Cell Line) were cultured in DMEM supplemented with 10% FBS and 1% Pen/Strep to 40-50% confluence using standard cell culture protocols, transfected with ion channel plasmids at a concentration of 18 μg per 15 cm dish using Fugene 6, and grown for an additional 24 hours. Cells were then assayed on a electrophysiological system (IonFluxHT and/or Mercury, Fluxion Biosciences) in which dose-response relationships may be assessed through a microfluidics-based platform for establishing whole cell configurations. Ensemble plates were primed with extracellular buffer (140 mM NaCl, 5 mM KCl, 2 mM CaCl2), 1 mM MgCl2, 10 mM HEPES, and 10 mM glucose, pH 7.2 with NaOH, mOsm 310), intracellular buffer (145 mM CsCl, 2 mM CaCl2, 2 mM MgCl2, 10 mM HEPES, and 10 mM EGTA, pH 7.2 with CsOH, mOsm 305), as adapted from Lynagh and Lynch, and test compounds (stocks prepared fresh) diluted in extracellular buffer. Cells were then released from the plate with Accutase, centrifuged, resuspended in extracellular buffer, and loaded into Ensemble plates. Cells were then subjected to a standard protocol for priming, trapping, breaking, and establishing whole cell configuration, with cells held at −60 mV throughout the recording. After recording baseline, progressive doses of test compounds were applied using the IonFlux software to assess dose response relationships. Data were then analyzed off-line using custom Python scripts to convert data to .csv format, re-plot traces, and apply QC measurements to reject unstable recordings (i.e. thresholding based on access resistance and/or standard deviation in baseline, as well as artifact rejection). Peak currents were then calculated and population data were fit using a 4-parameter logistic equation as described by the Hill Equation. Currents were measured on an automated patch clamp system (Fluxion Biosciences) following 1 second addition of drug and the EC50 values calculated are tabulated below in Table 13.

[4] = YFP quench plate reader assay, response to ABT-126; conditions: LX293T YFP reporter cells; for percent quench of YFP fluorescence, 50 nM abt: 50 nM ABT-126; for percent quench of YFP fluorescence, 100 nM abt: 100 nM ABT-126; for percent quench of YFP fluorescence, 300 nM abt: 300 nM ABT-126; for percent quench of YFP fluorescence, 1 uM abt: 1 uM ABT-126
From the text: as §1, §2, §3, §4, §5

[5] = YFP quench plate reader assay, response to RG3487; conditions: LX293T YFP reporter cells; for percent quench of YFP fluorescence, 30 nM fac: 30 nM RG3487; for percent quench of YFP fluorescence, 100 nM fac: 100 nM RG3487; for percent quench of YFP fluorescence, 300 nM fac: 300 nM RG3487; for percent quench of YFP fluorescence, 10 uM fac: 10 uM RG3487; for percent quench of YFP fluorescence, 30 uM fac: 30 uM RG3487
From the text: as §1, §2, §3, §4, §5

[6] = YFP quench plate reader assay, response to TC-6987; conditions: LX293T YFP reporter cells; for percent quench of YFP fluorescence, 1 uM tc6: 1 uM TC-6987; for percent quench of YFP fluorescence, 10 uM tc6: 10 uM TC-6987; for percent quench of YFP fluorescence, 500 uM tc6: 500 uM TC-6987
From the text: as §1, §2, §3, §4, §5

[7] = YFP quench plate reader assay, response to acetylcholine; conditions: LX293T YFP reporter cells; for percent quench of YFP fluorescence, 10 uM ach: 10 uM acetylcholine; for percent quench of YFP fluorescence, 100 uM ach: 100 uM acetylcholine; for percent quench of YFP fluorescence, 1 mM ach: 1 mM acetylcholine; for percent quench of YFP fluorescence, 3 mM ach: 3 mM acetylcholine
From the text: as §1, §2, §3, §4, §5

[8] = YFP quench plate reader assay, response to APN-1125; conditions: LX293T YFP reporter cells; for percent quench of YFP fluorescence, 100 nM apn: 100 nM APN-1125; for percent quench of YFP fluorescence, 1 uM apn: 1 uM APN-1125; for percent quench of YFP fluorescence, 30 uM apn: 30 uM APN-1125
From the text: as §1, §2, §3, §4, §5

Molecule	percent quench of YFP fluorescence, 1 nM brd [1] [%]	percent quench of YFP fluorescence, 3 nM brd [1] [%]	percent quench of YFP fluorescence, 10 nM brd [1] [%]	percent quench of YFP fluorescence, 30 nM brd [1] [%]	percent quench of YFP fluorescence, 100 nM brd [1] [%]	percent quench of YFP fluorescence, 300 nM brd [1] [%]	percent quench of YFP fluorescence, 1 uM brd [1] [%]	percent quench of YFP fluorescence, 100 nM azd [2] [%]	percent quench of YFP fluorescence, 300 nM azd [2] [%]	percent quench of YFP fluorescence, 30 uM azd [2] [%]	EC50 AZD-0328 [3]	percent quench of YFP fluorescence, 50 nM abt [4] [%]	percent quench of YFP fluorescence, 100 nM abt [4] [%]	percent quench of YFP fluorescence, 300 nM abt [4] [%]	percent quench of YFP fluorescence, 1 uM abt [4] [%]	percent quench of YFP fluorescence, 30 nM fac [5] [%]	percent quench of YFP fluorescence, 100 nM fac [5] [%]	percent quench of YFP fluorescence, 300 nM fac [5] [%]	percent quench of YFP fluorescence, 10 uM fac [5] [%]	percent quench of YFP fluorescence, 30 uM fac [5] [%]	also measured
B1	−9.78	12.06	−9.02	16.3	−7.44	−10.93	−4.55	−0.71	−1.73	47.39	no activity	−11.83	−11.5	−8.01	−9.34	38.08	−14.37	19.41	67.33	79.67	percent quench of YFP fluorescence, 1 uM tc6 [6]: 31.9%; percent quench of YFP fluorescence, 10 uM tc6 [6]: 25.54%; percent quench of YFP fluorescence, 500 uM tc6 [6]: 21.13%; percent quench of YFP fluorescence, 10 uM ach [7]: −0.46%; percent quench of YFP fluorescence, 100 uM ach [7]: −4.93%; percent quench of YFP fluorescence, 1 mM ach [7]: −11.18%; percent quench of YFP fluorescence, 3 mM ach [7]: −3.53%; percent quench of YFP fluorescence, 100 nM apn [8]: −18.17%; percent quench of YFP fluorescence, 1 uM apn [8]: −15.2%; percent quench of YFP fluorescence, 30 uM apn [8]: −14%
B2	−1.52	−5.35	−3.49	2.16	4.18	70.2	43.11	24.49	45.34	71.21	no activity	−1.68	−2.25	−2.37	3.68	45.76	63.92	79.43	80.1	84.91	percent quench of YFP fluorescence, 1 uM tc6 [6]: 36.07%; percent quench of YFP fluorescence, 10 uM tc6 [6]: 31.35%; percent quench of YFP fluorescence, 500 uM tc6 [6]: 28.18%; percent quench of YFP fluorescence, 10 uM ach [7]: 15.45%; percent quench of YFP fluorescence, 100 uM ach [7]: 13.77%; percent quench of YFP fluorescence, 1 mM ach [7]: 27.42%; percent quench of YFP fluorescence, 3 mM ach [7]: 53.62%; percent quench of YFP fluorescence, 100 nM apn [8]: −5.71%; percent quench of YFP fluorescence, 1 uM apn [8]: 13.03%; percent quench of YFP fluorescence, 30 uM apn [8]: 25.2%
